Experimental data reported in publication PMC11209835 (Cell metabolism, 2024).

Molecular target: T1, Flag-HA-tagged ALOX12, purified (UniProt P18054 1-663)
T1 sequence (looked up): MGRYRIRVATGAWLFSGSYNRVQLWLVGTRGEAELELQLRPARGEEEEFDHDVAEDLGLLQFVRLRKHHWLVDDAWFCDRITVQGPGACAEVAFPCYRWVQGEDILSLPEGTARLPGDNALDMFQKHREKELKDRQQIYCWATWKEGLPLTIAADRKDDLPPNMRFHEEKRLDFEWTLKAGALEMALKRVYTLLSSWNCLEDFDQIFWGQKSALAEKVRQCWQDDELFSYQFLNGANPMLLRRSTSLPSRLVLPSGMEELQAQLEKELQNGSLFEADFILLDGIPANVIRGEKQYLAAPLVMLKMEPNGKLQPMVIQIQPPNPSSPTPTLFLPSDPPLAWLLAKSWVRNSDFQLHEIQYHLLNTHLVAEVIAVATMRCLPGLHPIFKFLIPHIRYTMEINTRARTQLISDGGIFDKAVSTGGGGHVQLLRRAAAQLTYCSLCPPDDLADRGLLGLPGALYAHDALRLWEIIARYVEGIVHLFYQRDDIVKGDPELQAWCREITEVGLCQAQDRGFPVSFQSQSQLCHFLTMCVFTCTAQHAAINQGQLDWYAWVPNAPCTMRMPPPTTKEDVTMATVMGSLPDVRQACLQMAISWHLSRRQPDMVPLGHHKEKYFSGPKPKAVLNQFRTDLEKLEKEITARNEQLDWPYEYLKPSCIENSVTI
Assay: pull-down

Binder | binding result
GST-PHLDA2 Full-length (amino acids 1-152) (natural protein, human, UniProt Q53GA4 1-152, looked up) MKSPDEVLREGELEKRSDSLFQLWKKKRGVLTSDRLSLFPASPRARPKELRFHSILKVDCVERTGKYVYFTIVTTDHKEIDFRCAGESCWNAAIALALIDFQNRRALQDFRSRQERTAPAAPAEDAVAAAAAAPSEPSEPSRPSPQPKPRTP | binds
GST-PHLDA2-PH (amino acids 7-101) (domain or fragment, human, UniProt Q53GA4 7-101, looked up) VLREGELEKRSDSLFQLWKKKRGVLTSDRLSLFPASPRARPKELRFHSILKVDCVERTGKYVYFTIVTTDHKEIDFRCAGESCWNAAIALALIDF | binds
